T1: IPO5 (Homo sapiens), O00410
T1 chain: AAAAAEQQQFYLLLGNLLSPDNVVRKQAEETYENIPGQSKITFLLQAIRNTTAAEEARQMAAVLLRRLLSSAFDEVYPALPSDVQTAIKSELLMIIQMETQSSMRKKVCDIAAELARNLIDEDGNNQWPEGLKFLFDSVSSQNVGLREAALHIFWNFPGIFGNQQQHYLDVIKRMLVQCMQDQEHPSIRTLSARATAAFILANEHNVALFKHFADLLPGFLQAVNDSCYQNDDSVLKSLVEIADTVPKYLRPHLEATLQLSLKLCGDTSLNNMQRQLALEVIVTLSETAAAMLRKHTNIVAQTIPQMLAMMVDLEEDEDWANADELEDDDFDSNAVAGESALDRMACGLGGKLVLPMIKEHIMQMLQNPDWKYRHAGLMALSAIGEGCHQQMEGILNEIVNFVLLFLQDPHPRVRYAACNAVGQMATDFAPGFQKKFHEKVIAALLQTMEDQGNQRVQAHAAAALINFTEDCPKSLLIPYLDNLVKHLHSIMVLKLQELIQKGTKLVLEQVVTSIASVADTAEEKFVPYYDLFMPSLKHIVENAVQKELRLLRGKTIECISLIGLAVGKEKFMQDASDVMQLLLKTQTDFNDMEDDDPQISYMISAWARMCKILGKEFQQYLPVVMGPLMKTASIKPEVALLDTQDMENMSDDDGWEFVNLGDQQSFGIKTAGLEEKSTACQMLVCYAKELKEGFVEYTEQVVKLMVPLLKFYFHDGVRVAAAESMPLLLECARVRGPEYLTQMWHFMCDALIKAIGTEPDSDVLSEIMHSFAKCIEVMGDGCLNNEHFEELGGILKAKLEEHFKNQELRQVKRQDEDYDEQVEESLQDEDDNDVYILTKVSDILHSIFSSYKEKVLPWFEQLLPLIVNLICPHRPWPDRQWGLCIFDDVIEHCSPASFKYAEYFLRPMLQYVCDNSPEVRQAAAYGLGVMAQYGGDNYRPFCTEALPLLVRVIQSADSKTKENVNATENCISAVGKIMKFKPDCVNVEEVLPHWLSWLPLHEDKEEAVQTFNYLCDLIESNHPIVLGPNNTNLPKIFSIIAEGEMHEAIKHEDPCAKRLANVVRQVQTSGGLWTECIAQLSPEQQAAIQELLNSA

B1: recombinant IPO5 (importin β3/kap β3), O00410-1 1-1097 (natural protein)
chain: MAAAAAEQQQFYLLLGNLLSPDNVVRKQAEETYENIPGQSKITFLLQAIRNTTAAEEARQMAAVLLRRLLSSAFDEVYPALPSDVQTAIKSELLMIIQMETQSSMRKKVCDIAAELARNLIDEDGNNQWPEGLKFLFDSVSSQNVGLREAALHIFWNFPGIFGNQQQHYLDVIKRMLVQCMQDQEHPSIRTLSARATAAFILANEHNVALFKHFADLLPGFLQAVNDSCYQNDDSVLKSLVEIADTVPKYLRPHLEATLQLSLKLCGDTSLNNMQRQLALEVIVTLSETAAAMLRKHTNIVAQTIPQMLAMMVDLEEDEDWANADELEDDDFDSNAVAGESALDRMACGLGGKLVLPMIKEHIMQMLQNPDWKYRHAGLMALSAIGEGCHQQMEGILNEIVNFVLLFLQDPHPRVRYAACNAVGQMATDFAPGFQKKFHEKVIAALLQTMEDQGNQRVQAHAAAALINFTEDCPKSLLIPYLDNLVKHLHSIMVLKLQELIQKGTKLVLEQVVTSIASVADTAEEKFVPYYDLFMPSLKHIVENAVQKELRLLRGKTIECISLIGLAVGKEKFMQDASDVMQLLLKTQTDFNDMEDDDPQISYMISAWARMCKILGKEFQQYLPVVMGPLMKTASIKPEVALLDTQDMENMSDDDGWEFVNLGDQQSFGIKTAGLEEKSTACQMLVCYAKELKEGFVEYTEQVVKLMVPLLKFYFHDGVRVAAAESMPLLLECARVRGPEYLTQMWHFMCDALIKAIGTEPDSDVLSEIMHSFAKCIEVMGDGCLNNEHFEELGGILKAKLEEHFKNQELRQVKRQDEDYDEQVEESLQDEDDNDVYILTKVSDILHSIFSSYKEKVLPWFEQLLPLIVNLICPHRPWPDRQWGLCIFDDVIEHCSPASFKYAEYFLRPMLQYVCDNSPEVRQAAAYGLGVMAQYGGDNYRPFCTEALPLLVRVIQSADSKTKENVNATENCISAVGKIMKFKPDCVNVEEVLPHWLSWLPLHEDKEEAVQTFNYLCDLIESNHPIVLGPNNTNLPKIFSIIAEGEMHEAIKHEDPCAKRLANVVRQVQTSGGLWTECIAQLSPEQQAAIQELLNSA

Columns and labels:
[1] = molecular target: T1, IPO5 (Homo sapiens), O00410; details: modification not given
[2] = molecular target: Core NLS 4 synthetic peptide (fused to penetratin) (hepatitis C virus | not stated); test: ELISA; plates coated with synthetic peptide (10 µg/ml, carbonate buffer pH 9.6); increasing concentrations of recombinant NTF, 2 h, room temperature; anti-HIS detection; apparent Kd; details: remark: other sources report otherwise
[3] = molecular target: NS3 NLS 1 synthetic peptide (fused to penetratin) (hepatitis C virus | not stated); test: as above; details: remark: other sources report otherwise
[4] = molecular target: NS3 NLS 2 synthetic peptide (fused to penetratin) (hepatitis C virus | not stated); test: as above; details: remark: other sources report otherwise
[5] = molecular target: NS5A NLS synthetic peptide (fused to penetratin) (hepatitis C virus | not stated); test: as above; details: remark: other sources report otherwise

Row | Binder | Kd [1] [nM] | Kd [2] [nM] | Kd [3] [nM] | Kd [4] [nM] | Kd [5] [nM]
1 | TRQARRNRRRRWRERQR [HIV-1 Rev NLS peptide NLS peptide, P04325] | 44 | – | – | – | –
2 | B1 | – | 105 | 33.8 | 35.8 | 32.3
